Test results reported in patent publication US20140356376.

Experiments:
[1] = test system: thio-S4497 HC v1-MP-LAFG-PABC-(piperazinoBOR) AAC-193
[2] = test system: thioFAB 4497 MP-LAFAA-QSY7
[3] = test system: thioFAB 4497 MP-LAFGA-QSY7

staphopain B
100%: Percent cleavage pH 5 [1] | Percent cleavage pH 7.2 [1] | Percent cleavage pH 7.2 [2] | Percent cleavage pH 7.2 [3]
